Measured values taken from patent publication US20260042834A1 (HBM ALPHA THERAPEUTICS, published 2026).
Where a chain is given by its changes, count along the chain named. Where two headings read alike, the source gives them in different places.

B1: PR302309-1 (antibody, human IgG1, kappa, V domains shown)
VH: QIQLVQSGPELKKPGETVKISCKASGYTFTNYGMNWVKQAPGKVLKWMGWINTYTGEPIYTDDFKGRFAFSLETSASTAYLQINNLKNEDTATYFCSRSTMITTGGVFAYWGQGTLVTVSA
VL: DVVMTQSPLSLPVTLGQPASISCRSSQTIVHSDGNTYLEWFQQRPGQSPRRLIYKVSNRFSGVPDRFSGSGSGTDFTLKISRVEAEDVGVYYCFQGSHVPWTFGGGTKVEIKR
B2: PR302309-9 (antibody, human IgG1, kappa, V domains shown)
VH: QIQLVQSGSELKKPGASVKVSCKASGYTFTNYGMNWVRQAPGQGLEWMGWINTYTGEPIYTDDFKGRFVFSLDTSVSTAYLQISSLKAEDTAVYYCSRSTMITTGGVFAYWGQGTLVTVSS
VL: B1 VL with V2I, S7T, P12S, L15P, F41Y, Q42L, R44K, R50Q, R51L
B3: PR302309-8 (antibody, human IgG1, kappa, V domains shown)
VH: B2 VH
VL: B1 VL with F41Y, R51L, V88L
B4: PR302309-5 (antibody, human IgG1, kappa, V domains shown)
VH: B1 VH
VL: B1 VL with V2I, S7T, L11S, F41L, S48P, R51L, S72A
B5: PR302309-18 (antibody, human IgG1, kappa, V domains shown)
VH: QVQLVQSGAEVKKPGASVKVSCKASGYTFTNYGMNWVRQAPGQRLEWMGWINTYTGEPIYTDDFKGRVTITRDTSASTAYMELSSLRSEDTAVYYCARSTMITTGGVFAYWGQGTLVTVSS
VL: B1 VL with F41Y, R51L, V88L
B6: PR302309-19 (antibody, human IgG1, kappa, V domains shown)
VH: B5 VH with V2I, R72L, A97S
VL: B1 VL with F41Y, R51L, V88L
B7: PR302309-7 (antibody, human IgG1, kappa, V domains shown)
VH: B2 VH
VL: B1 VL
B8: PR302309-11 (antibody, human IgG1, kappa, V domains shown)
VH: B2 VH
VL: B1 VL with V2I, S7T, L11S, F41L, S48P, R51L, S72A
B9: PR302309-17 (antibody, human IgG1, kappa, V domains shown)
VH: B2 VH with I2V, S97A
VL: B1 VL with F41Y, R51L, V88L
B10: PR302309-12 (antibody, human IgG1, kappa, V domains shown)
VH: B2 VH
VL: B1 VL with S7T, L11S, F41Y, S48P, R51L, S72A, V88L
B11: PR302309-4 (antibody, human IgG1, kappa, V domains shown)
VH: B1 VH
VL: B1 VL with S7T, P12S, L15P, F41Y, Q42L, R44K, R50Q, R51L, V88L
B12: PR302309-10 (antibody, human IgG1, kappa, V domains shown)
VH: B2 VH
VL: B1 VL with S7T, P12S, L15P, F41Y, Q42L, R44K, R50Q, R51L, V88L
B13: PR302309-21 (antibody, human IgG1, kappa, V domains shown)
VH: B5 VH with V2I, R72L, A97S
VL: B1 VL with S7T, L11S, F41Y, S48P, R51L, S72A, V88L
B14: PR302309-3 (antibody, human IgG1, kappa, V domains shown)
VH: B1 VH
VL: B1 VL with V2I, S7T, P12S, L15P, F41Y, Q42L, R44K, R50Q, R51L
B15: PR302309-6 (antibody, human IgG1, kappa, V domains shown)
VH: B1 VH
VL: B1 VL with S7T, L11S, F41Y, S48P, R51L, S72A, V88L
B16: PR302309-2 (antibody, human IgG1, kappa, V domains shown)
VH: B1 VH
VL: B1 VL with F41Y, R51L, V88L
B17: PR302309-20 (antibody, human IgG1, kappa, V domains shown)
VH: B5 VH with V2I, R72L, A97S
VL: B1 VL with S7T, P12S, L15P, F41Y, Q42L, R44K, R50Q, R51L, V88L
B18: PR301788 (antibody, human IgG1, kappa, V domains shown)
VH: EMKLEESGGGLVQPGGSMKLSCVASGFTFSNYWMNWVRQSPEKGLEWVAEIRLKSNNYATHYAESVKGRFTISRDDSKSSVYLQMNNLRAEDTGIYYCTIGTLVYWGQGTLVTVSA
VL: DIVLTQSPASLAVSLGQRATISCRASQSVSTSTYNYMHWFQQKPGQPPKLLIKFASNLESGVPARFSGSGSGTDFTLNIHPVEEEDTATFYCQHSWEIPYTFGGGTKLEIKR
notes: Mouse variable domains, expressed recombinantly with human IgG1 wildtype Fc; also called Series 5 mAb
B19: PR301777 (antibody, human IgG1, kappa, V domains shown)
VH: B18 VH with S80G, R89G, I100V
VL: B18 VL
notes: as for B18
B20: PR301306 (antibody, human IgG1, kappa, V domains shown)
VH: B18 VH with M2V, H61L, I100R
VL: B18 VL with T33D, F40Y, F54Y, F90Y
notes: Mouse variable domains, expressed recombinantly with human IgG1 wildtype Fc; also called Series 3 mAb
B21: PR302309-13 (antibody, human IgG1, kappa, V domains shown)
VH: B2 VH with I2V, S97A
VL: DVLMAQTPLSLPVSLGDQASISCRSSQTIVHSDGNTYLEWYLQKPGQSPKLLIYKVSNRFSGVPDRFSGSGSGTDFTLKISRVEAEDLGVYYCFQGSHVPWTFGGGTKLEIKR
B22: PR302309-14 (antibody, human IgG1, kappa, V domains shown)
VH: B2 VH
VL: B21 VL
B23: PR302309-16 (antibody, human IgG1, kappa, V domains shown)
VH: B5 VH with V2I, R72L, A97S
VL: B21 VL
B24: PR302309-15 (antibody, human IgG1, kappa, V domains shown)
VH: B5 VH
VL: B21 VL
B25: PR301612 (antibody, human IgG1, kappa, V domains shown)
VH: EVKLEESGGGLVQPGGSIKLSCVASGFTFSGAWMAWVRQSPEKGLEWVAEIKNKANNHATFYAESVKGRFIISRDDSKSSVYLQMNSLRAEDTGTYYCTLPDVWGTGTTVTVSS
VL: QIVLTQSPAIMSASPGERVTISCSASSSVSNMYWYLQKPGSSPKPWIYRTSNLASGVPARFSGSGSGTSYSLTISSMEAEDVATYYCQQYHSFPRTFGGGTKLEIKR
notes: Mouse variable domains, expressed recombinantly with human IgG1 wildtype Fc; also called Series 4 mAb
B26: PR302334-26 (antibody, human IgG1, kappa, V domains shown)
VH: EVQLVESGGGLVQPGGSLRLSCAASGFTFSTYAMSWVRQAPGKGLEWVASIRSGGTTYYPDSVKGRFTISRDNSKNSLYLQMNSLRAEDTAVYYCTRGIDWGQGTTVTVSS
VL: DIVMTQSPDSLAVSLGERATINCKASQSVNNDVAWYQQKPGQPPRLLIYYASNRYTGVPDRFSGSGSGTDFTLTISSLQAEDLAVYFCQQDYSSWTFGGGTKVEIKR
B27: PR302334-27 (antibody, human IgG1, kappa, V domains shown)
VH: B26 VH
VL: DIQMTQSSLSASVSLGDRVTITCKASQSVNNDVAWYQQKPGKAPRLLIYYASNRYTGVPSRFSGSGSGTDFTFTISSLQPEDLATYFCQQDYSSWTFGGGTKVEIKR
B28: PR004289 (antibody, human IgG1, kappa, V domains shown)
VH: EVQLVESGGVLVQPGGSLRLSCAASGFIFSSYWMTWVRQAPGKGLEWVANIKQDGSEKYYVDSVKGRFTISRDNAKNSLFLQMNSLRAEDTAVYYCARTLIFDYWGQGTLVTVSS
VL: DIVMTQSPLSLPVTPGEPASISCRSSQSLLHSTGYNSLEWYLQKPGQSPQLLIYLGSNRASGVPDRFSGSGSGTDFTLKISRVEAEDVGIYYCMQTLQTPITFGQGTRLEIKR
notes: Expressed recombinantly with human IgG1 wildtype Fc; also called Hybridoma Clone 16g2; Series 1 mAb
B29: PR006669 (antibody, human IgG1, kappa, V domains shown)
VH: EVQLVESGGGLVQPGGSLRLSCAASGFTFSDNWMSWVRQAPGKGLEWVANIKQDGSENYYVDSVKGRFTISRDNAKNSLYLQMNSLRAEDTAVYYCSRGLALWGWGQGTLVTVSS
VL: B28 VL with Q6H, E17D, S37Y, E39D, I80F, S81I, I90V, T96A, I101Y, R108K

Assays:
[1] = target: T1, corticotropin-releasing hormone (CRH) peptide (human and mouse (same sequence), not fully specified); assay: cell-based or functional assay
T1 peptide: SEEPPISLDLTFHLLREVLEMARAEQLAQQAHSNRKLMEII

[2] = target: T2, corticotropin-releasing hormone (CRH) peptide (human and mouse, not fully specified); assay: cell-based or functional assay
T2 peptide: T1 peptide

CRH (CT-Biotin) = target: T3, CRH (CT-Biotin) (human and mouse, biotin on the added C-terminal K (-K-Biotin)); assay: ELISA, C-terminally biotinylated CRH on streptavidin-coated plate
T3 construct: also called Peptide 4 (CRH-Biotin); C-terminally biotinylated corticotropin-releasing hormone
T3 peptide: T1 peptide
Experimental: (§1) Streptavidin (Thermo, Cat: 21125) was diluted in PBS to a concentration of 2 μg/ml. 100 μl of diluted streptavidin was added per well to ELISA microplates, and the plates were incubated overnight at 4° C. […] 100 μL of 3,3′,5,5′-tetramethylbenzidine (TMB) substrate (Biopanda, Cat: TMB-S-003) was added, and the plates were incubated at room temperature for 15 minutes. 100 μL of ELISA stopping solution (Solarbio, Cat #: C1058) was added to terminate the reaction, and the optical density at 450 nm (OD450 nm) was determined by an ELISA plate reader (Molecular Devices, Spectra max 384 plus).

CRH (NT-Biotin) = target: T4, CRH (NT-Biotin) (human and mouse, not fully specified; biotin at the N-terminus); assay: ELISA, N-terminally biotinylated CRH on streptavidin-coated plate
T4 construct: also called Biotin-CRH; N-terminally biotinylated corticotropin-releasing hormone
T4 peptide: T1 peptide
Experimental: as §1

[3] = target: T1, corticotropin-releasing hormone (CRH) …; assay: cell-based or functional assay

Binder	hCRHR1 Luciferase Reporter Assay IC50 [1] [nM]	also measured
B1	4.42	–
B2	6.08	–
B3	1.7	–
B4	0.454	–
B5	1.73	–
B6	4.83	–
B7	6.38	–
B8	2.12	–
B9	6.69	–
B10	4.47	–
B11	1.26	–
B12	3.2	–
B13	8.44	–
B14	2.22	–
B15	1.08	–
B16	0.773	–
B17	3.07	–
B18	–	hCRHR1 Reporter IC50 [2]: 0.46 nM; EC50 (CRH (CT-Biotin)): 0.011 nM; EC50 (CRH (NT-Biotin)): 0.018 nM
B19	–	hCRHR1 Reporter IC50 [2]: 0.609 nM; EC50 (CRH (CT-Biotin)): 0.038 nM; EC50 (CRH (NT-Biotin)): 0.027 nM
B20	–	hCRHR1 Reporter IC50 [2]: 35.6 nM; EC50 (CRH (CT-Biotin)): 0.037 nM; EC50 (CRH (NT-Biotin)): 0.094 nM
B21	7.23	–
B22	1.68	–
B23	5.47	–
B24	10.5	–
B25	–	hCRHR1 Reporter IC50 [2]: 18.1 nM; EC50 (CRH (CT-Biotin)): 0.033 nM
B26	–	hCRHR1 Luciferase Reporter Assay IC50 [3]: 1.1 nM; mCrhr1 Luciferase Reporter Assay IC50 [3]: 1.34 nM
B27	–	hCRHR1-Luc 0.5 nM CRH IC50 [3]: 1.36 nM; hCRHR1 Luciferase Reporter Assay IC50 [3]: 1.36 nM; mCrhr1 Luciferase Reporter Assay IC50 [3]: 2.27 nM
B28	–	hCRHR1 Reporter IC50 [2]: 3.13 nM; EC50 (CRH (CT-Biotin)): 0.023 nM; EC50 (CRH (NT-Biotin)): 0.023 nM
B29	–	hCRHR1 Reporter IC50 [2]: 7.38 nM
